# Measurements reported in PMC7211019, “Par complex cluster formation mediated by phase separation” (Nature Communications, 2020).
# Ends that are not written are not given here.
# B1: FITC-labeled Par6β PBM peptide (peptide)
# peptide: LEEDGTIITL
# modifications: also: FITC label, position not given here
# notes: source: synthetic peptide (Phtdpeptides)
# Tests used:
# Par3 PDZ3 = target: T1, Par3 PDZ3 (rat, UniProt Q9Z340 582-685); assay: fluorescence polarisation; FITC-labeled peptide (~1 μM) titrated with Par3 PDZ domains, 25 °C, buffer A (50 mM Tris pH 8.0, 100 mM NaCl, 1 mM EDTA, 1 mM DTT); settings: both partners purified
# T1 construct: Par3, rat, third PDZ domain; Cloned into pGEX-6P-1 or a modified pET32a vector; also called rat Par3 PDZ3; source: E. coli BL21 (DE3) or Rosetta, purified (Ni2+-NTA, SEC)
# [1] = target: B1; assay: as above; settings: both partners purified
# T1 sequence (Q9Z340 582-685): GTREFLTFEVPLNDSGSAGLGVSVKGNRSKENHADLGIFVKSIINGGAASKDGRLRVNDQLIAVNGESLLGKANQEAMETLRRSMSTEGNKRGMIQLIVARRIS
Kd (Par3 PDZ3) [nM],fold weakening against wild-type Par3 PDZ3 [1] [fold],Binder
~1000,,B1
,~20,"Par3 PDZ3 G600,602 A (domain or fragment, rat, Par3, rat, third PDZ domain with G600A and G602A; source: E. coli BL21 (DE3) or Rosetta, purified (Ni2+-NTA, SEC)) GTREFLTFEVPLNDSGSAALAVSVKGNRSKENHADLGIFVKSIINGGAASKDGRLRVNDQLIAVNGESLLGKANQEAMETLRRSMSTEGNKRGMIQLIVARRIS"
